According to publication PMC6561087 (Nature, 2019):
One block for each binder: values may come before it.

What was measured:
[1] = target: T1, IFNγR1, wild type, recombinant soluble receptor captured on the SPR chip (UniProt P15260 18-245); assay: SPR
T1 sequence (looked up): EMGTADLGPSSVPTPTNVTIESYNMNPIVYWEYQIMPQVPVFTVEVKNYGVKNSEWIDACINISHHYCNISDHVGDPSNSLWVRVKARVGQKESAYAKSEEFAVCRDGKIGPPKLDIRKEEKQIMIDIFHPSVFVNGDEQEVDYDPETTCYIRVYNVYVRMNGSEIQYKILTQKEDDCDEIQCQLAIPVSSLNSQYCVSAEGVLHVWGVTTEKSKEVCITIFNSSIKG

[2] = target: 2:2 IFNγ–IFNγR1 intermediate complex (wild type), formed on the SPR chip (UniProt P15260); assay: SPR

- binding result [1]: binds
B1: IFNγ(K74A/E75Y/N83R) triple mutant (ligand)
chain: QDPYVKEAENLKKYFNAGHSDVADNGTLFLGILKNWKEESDRKIMQSQIVSFYFKLFKNFKDDQSIQKSVETIAYDMNVKFFRSNKKKRDDFEKLTNYSVTDLNVQRKAIHELIQVMAELSPAAKTGKRKRSQ

- Kd [2]: 5 µM
B2: IFNγR2, wild type, recombinant soluble receptor (receptor)
chain: SQLPAPQHPKIRLYNAEQVLSWEPVALSNSTRPVVYQVQFKYTDSKWFTADIMSIGVNCTQITATECDFTAASPSAGFPMDFNVTLRLRAELGALHSAWVTMPWFQHYRNVTVGPPENIEVTPGEGSLIIRFSSPFDIADTSTAFFCYYVHYWEKGGIQQVKGPFRSNSISLDNLKPSRVYCLQVQAQLLWNKSNIFRVGHLSNISCYETMADASTELQQ
